# Test results published in PMC7884425 (2021).
# Changes are numbered by the printed parent chain.
# T1: human HPF1 R239A (human, UniProt Q9NWY4 1-346, R239A)
# T1 sequence: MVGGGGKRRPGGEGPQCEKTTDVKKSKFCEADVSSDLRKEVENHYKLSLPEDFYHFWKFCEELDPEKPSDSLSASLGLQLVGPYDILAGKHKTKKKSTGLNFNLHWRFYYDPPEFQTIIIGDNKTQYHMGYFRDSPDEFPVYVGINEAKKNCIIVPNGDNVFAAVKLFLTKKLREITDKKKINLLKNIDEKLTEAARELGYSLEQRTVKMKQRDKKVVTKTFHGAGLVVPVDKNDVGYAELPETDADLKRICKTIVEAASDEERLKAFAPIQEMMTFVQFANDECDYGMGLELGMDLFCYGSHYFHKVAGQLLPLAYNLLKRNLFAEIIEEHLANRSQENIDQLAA
# T2: human HPF1 K307S (human, UniProt Q9NWY4 1-346, K307S)
# T2 sequence: T1 sequence with A239R, K307S
# T3: human HPF1 F280A (human, UniProt Q9NWY4 1-346, F280A)
# T3 sequence: T1 sequence with A239R, F280A
# T4: human HPF1 E138K (human, UniProt Q9NWY4 1-346, E138K)
# T4 sequence: T1 sequence with E138K, A239R
# T5: human HPF1 F139S (human, UniProt Q9NWY4 1-346, F139S)
# T5 sequence: T1 sequence with F139S, A239R
# T6: human HPF1 K216E (human, UniProt Q9NWY4 1-346, K216E)
# T6 sequence: T1 sequence with K216E, A239R
# B1: human PARP1-CAT ΔHD (661-678-GSGSGSGG-787-1014) (domain or fragment)
# chain: TKSKLPKPVQDLIKMIFDGSGSGSGGKDPIDVNYEKLKTDIKVVDRDSEEAEIIRKYVKNTHATTHNAYDLEVIDIFKIEREGECQRYKPFKQLHNRRLLWHGSRTTNFAGILSQGLRIAPPEAPVTGYMFGKGIYFADMVSKSANYCHTSQGDPIGLILLGEVALGNMYELKHASHISKLPKGKHSVKGLGKTTPDPSANISLDGVDVPLGTGISSGVNDTSLLYNEYIVYDIAQVNLKYLLKLKFNFKTSLW
# B2: human HPF1 (histone PARylation factor 1), wild-type (natural protein)
# chain: T1 sequence with A239R
# Key:
# [1] = biological target: T1, human HPF1 R239A; assay: ITC; replicate 2
# [2] = biological target: T2, human HPF1 K307S; assay: ITC; replicate 2
# [3] = biological target: T3, human HPF1 F280A; assay: ITC; replicate 2
# [4] = biological target: T4, human HPF1 E138K; assay: ITC; replicate 2
# [5] = biological target: T5, human HPF1 F139S; assay: ITC; replicate 2
# [6] = biological target: T6, human HPF1 K216E; assay: ITC; replicate 2
# [7] = biological target: T1, human HPF1 R239A; assay: ITC; replicate 1
# [8] = biological target: T2, human HPF1 K307S; assay: ITC; replicate 1
# [9] = biological target: T3, human HPF1 F280A; assay: ITC; replicate 1
# [10] = biological target: T4, human HPF1 E138K; assay: ITC; replicate 1
# [11] = biological target: T5, human HPF1 F139S; assay: ITC; replicate 1
# [12] = biological target: PARP1 D756A (human, UniProt P09874 1-1014, D756A); assay: ITC; in the presence of DNA
# [13] = biological target: B1; assay: ITC; replicate 2
Ka [1] [M⁻¹],Ka [2] [M⁻¹],Ka [3] [M⁻¹],Ka [4] [M⁻¹],Ka [5] [M⁻¹],Ka [6] [M⁻¹],Ka [7] [M⁻¹],Ka [8] [M⁻¹],Ka [9] [M⁻¹],Ka [10] [M⁻¹],Ka [11] [M⁻¹],Ka [12] [M⁻¹],Ka [13] [M⁻¹],Binder
402000,123000,212000,583000,440000,725000,432000,95700,147000,617000,400000,,,B1
,,,,,,,,,,,333000,642000,B2
